Measured values from PMC10281602.

T1: PbrARF13 (Pyrus bretschneideri? (pear …, UniProt UPI00202FA75D 49-757))
T1 sequence: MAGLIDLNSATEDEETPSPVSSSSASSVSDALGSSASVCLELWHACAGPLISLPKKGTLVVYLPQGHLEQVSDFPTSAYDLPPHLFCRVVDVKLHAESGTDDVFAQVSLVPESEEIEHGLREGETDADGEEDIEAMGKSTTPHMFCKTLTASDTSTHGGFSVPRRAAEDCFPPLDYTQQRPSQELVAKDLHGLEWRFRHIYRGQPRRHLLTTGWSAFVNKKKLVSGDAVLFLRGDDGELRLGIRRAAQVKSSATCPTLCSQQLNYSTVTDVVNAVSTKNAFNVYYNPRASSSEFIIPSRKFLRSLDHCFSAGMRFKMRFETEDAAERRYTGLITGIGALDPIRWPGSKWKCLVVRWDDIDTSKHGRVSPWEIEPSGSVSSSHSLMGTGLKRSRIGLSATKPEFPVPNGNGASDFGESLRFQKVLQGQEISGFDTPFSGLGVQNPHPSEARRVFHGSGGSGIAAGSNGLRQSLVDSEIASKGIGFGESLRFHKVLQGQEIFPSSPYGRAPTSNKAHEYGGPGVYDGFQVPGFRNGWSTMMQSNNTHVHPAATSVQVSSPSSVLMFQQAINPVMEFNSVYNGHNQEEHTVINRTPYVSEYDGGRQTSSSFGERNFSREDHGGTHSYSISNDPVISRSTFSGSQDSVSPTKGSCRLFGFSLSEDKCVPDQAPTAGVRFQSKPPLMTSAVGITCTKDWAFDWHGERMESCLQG

T2: PbrNSC (Pyrus bretschneideri? (pear …, UniProt A0A5J6X514 1-400))
T2 sequence: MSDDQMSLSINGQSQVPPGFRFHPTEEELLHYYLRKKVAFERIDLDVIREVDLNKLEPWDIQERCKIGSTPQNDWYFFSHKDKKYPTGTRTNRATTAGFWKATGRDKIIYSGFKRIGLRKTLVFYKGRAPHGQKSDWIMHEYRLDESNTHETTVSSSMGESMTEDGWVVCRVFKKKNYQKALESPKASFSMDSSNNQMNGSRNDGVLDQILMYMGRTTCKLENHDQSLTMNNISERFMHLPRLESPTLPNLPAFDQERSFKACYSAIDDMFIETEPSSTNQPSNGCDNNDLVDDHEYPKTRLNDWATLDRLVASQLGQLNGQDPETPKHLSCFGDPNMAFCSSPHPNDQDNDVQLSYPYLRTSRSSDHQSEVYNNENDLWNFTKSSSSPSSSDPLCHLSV


How the values were obtained:
PbrARF13 [1] = molecular target: T1, PbrARF13; test: EMSA
PbrARF13 [2] = molecular target: T1, PbrARF13; test: competition
PbrNSC = molecular target: T2, PbrNSC; test: EMSA

| Binder | binding result (PbrARF13 [1]) | also measured |
| --- | --- | --- |
| AuxRE-2 probe (dsDNA) DNA 1: ATCATCTCTGTCTCTCTCTTGC DNA 2: GCAAGAGAGAGACAGAGATGAT | binds | – |
| AuxRE-2 mutant probe (dsDNA) DNA 1: ATCATCTCGAGAGATCTCTTGC DNA 2: GCAAGAGATCTCTCGAGATGAT | no binding | – |
| AuxRE-2 unlabelled competitor (dsDNA) DNA 1: ATCATCTCTGTCTCTCTCTTGC DNA 2: GCAAGAGAGAGACAGAGATGAT | – | binding result (PbrARF13 [2]): binds |
| SNBE probe (dsDNA) DNA 1: ATACTTGAAACCTAAGTAA DNA 2: TTACTTAGGTTTCAAGTAT | – | binding result (PbrNSC): binds |
